This is an account of results in patent publication US20240115722A1.

Substitutions are numbered along the chain they refer to.

The experiment deals with human EPH receptor A5 (EphA5) expressed on cells (human) (UniProt P54756). Put plainly: high-throughput flow cytometry, HEK293T cells expressing wild-type EPHA5 versus vector alone, Fab at 0.50 µg/ml.
Chain of human EPH receptor A5 (EphA5) expressed on cells (human) (P54756 25-1037 limits assumed): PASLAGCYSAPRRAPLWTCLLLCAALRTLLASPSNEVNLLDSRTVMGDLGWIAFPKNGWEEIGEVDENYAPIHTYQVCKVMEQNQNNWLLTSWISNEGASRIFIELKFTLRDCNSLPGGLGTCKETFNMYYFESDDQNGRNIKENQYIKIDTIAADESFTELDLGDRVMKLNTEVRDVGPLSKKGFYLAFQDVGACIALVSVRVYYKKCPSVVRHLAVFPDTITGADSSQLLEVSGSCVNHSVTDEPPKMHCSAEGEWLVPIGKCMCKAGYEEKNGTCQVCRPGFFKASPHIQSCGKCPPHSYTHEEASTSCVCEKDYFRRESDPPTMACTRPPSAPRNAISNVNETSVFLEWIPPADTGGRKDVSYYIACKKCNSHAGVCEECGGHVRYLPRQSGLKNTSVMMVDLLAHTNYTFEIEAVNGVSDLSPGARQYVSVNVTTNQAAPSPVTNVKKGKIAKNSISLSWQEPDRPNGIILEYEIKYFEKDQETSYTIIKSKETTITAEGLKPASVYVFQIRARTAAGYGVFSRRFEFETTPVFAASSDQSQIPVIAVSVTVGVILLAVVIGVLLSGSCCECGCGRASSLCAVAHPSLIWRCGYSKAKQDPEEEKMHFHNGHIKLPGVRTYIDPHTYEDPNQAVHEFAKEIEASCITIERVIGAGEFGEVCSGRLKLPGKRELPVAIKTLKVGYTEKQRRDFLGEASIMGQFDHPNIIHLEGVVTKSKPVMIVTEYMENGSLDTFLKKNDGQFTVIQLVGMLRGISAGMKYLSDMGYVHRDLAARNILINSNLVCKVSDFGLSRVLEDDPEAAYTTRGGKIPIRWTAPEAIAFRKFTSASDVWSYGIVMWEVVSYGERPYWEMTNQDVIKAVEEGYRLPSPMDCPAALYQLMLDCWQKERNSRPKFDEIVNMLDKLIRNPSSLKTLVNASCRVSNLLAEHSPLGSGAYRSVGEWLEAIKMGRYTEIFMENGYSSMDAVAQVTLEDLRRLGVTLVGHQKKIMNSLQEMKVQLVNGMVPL

B1: Fab derived from the H5K3 antibody (Fab, part only; not given: CH1 and upper hinge limits, V domains shown, not shown: another chain or arm of the molecule; a dimerising Fc or GST)
VH: EVQLVESGGGLVQPGGSLKLSCAASGFTFSTFGIHWVRQAPGKGLEWVAYISGASTTIYYADSVKGRFTISRDNSKNTLYLQMNSLRAEDTAVYYCARYGTSFPYGLDYWGQGTLVTVSS
VL: DIVMTQSPDSLAVSLGERATINCKASQSVDYDGDSYMNWYQQKPGKAPKLLIYGASNLESGIPDRFSGSGSGTDFTLTISRLEPEDAAVYYCQQSNEDPFTFGQGTKLEIK
Consider B1, for which the Signal:Background came out at 70.

B2: Fab derived from the H4K3 antibody (Fab, part only; not given: CH1 and upper hinge limits, V domains shown, not shown: another chain or arm of the molecule; a dimerising Fc or GST)
VH: B1 VH with S63T
VL: B1 VL
Molecule B2 registered a Signal:Background of 66.
